This is an account of results in article doi:10.1101/2021.10.12.463902 (bioRxiv, 2021).

Like-named read-outs stand apart in the source and are kept apart here.

Series [1] deals with Taxol-stabilized microtubules (unlabeled, Alexa 647-labelled and biotinylated tubulin 50:2:1.5) (not stated (Pork or Bovine brains)) (UniProt P02550). Nature of the series: single-molecule TIRF motility assay on microtubules.
The target in series [2] is microtubules of porcine tubulin (GMPCPP or Paclitaxel stabilised, biotin and Alexa-Fluor-633 labelled) (porcine) (UniProt P02550). The description is as above.
Series [3] shares this target. Described as above. This is another data set of the same source.
The target in series [4] is Drosophila melanogaster KLP61F BASS-XL (extended Bipolar assembly domain minifilament) (Drosophila melanogaster) (UniProt P46863). The series is described as follows: crystal structure.
Series [5] concerns the molecule itself. Nature of the series: single-molecule TIRF motility assay on microtubules.

Chain of Taxol-stabilized microtubules (unlabeled, Alexa 647-labelled and biotinylated tubulin 50:2:1.5) (not stated (Pork or Bovine brains)) (P02550 whole entry, looked up): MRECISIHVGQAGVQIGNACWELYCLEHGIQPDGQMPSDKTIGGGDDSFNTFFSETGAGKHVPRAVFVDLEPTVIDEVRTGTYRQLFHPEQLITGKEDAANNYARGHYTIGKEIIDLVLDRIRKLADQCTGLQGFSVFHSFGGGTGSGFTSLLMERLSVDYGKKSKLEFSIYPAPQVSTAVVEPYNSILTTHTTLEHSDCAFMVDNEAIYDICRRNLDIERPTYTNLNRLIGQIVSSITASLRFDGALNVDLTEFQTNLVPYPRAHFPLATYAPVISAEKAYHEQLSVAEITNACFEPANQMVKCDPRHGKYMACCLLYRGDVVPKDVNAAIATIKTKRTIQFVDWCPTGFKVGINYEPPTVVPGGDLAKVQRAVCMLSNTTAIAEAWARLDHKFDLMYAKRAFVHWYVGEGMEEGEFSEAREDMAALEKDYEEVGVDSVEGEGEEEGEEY
Chain of microtubules of porcine tubulin (GMPCPP or Paclitaxel stabilised, biotin and Alexa-Fluor-633 labelled) (porcine) (P02550 whole entry, looked up): as above

Take “human Eg5 kinesin-5 mini-tetramer without tail (hMBX), TMR labelled (from UniProt P52732 1-374; P46863 597-799)”: in series [1], the dwell time at MT plus ends, longer lifetime population is 140 s and the dwell time at MT plus ends, shorter lifetime population came to 14.6 s.

For the molecule “Drosophila KLP61F kinesin-5 mini-tetramer without tail (kMBX), neon green tagged (from UniProt P46863 1-369; P46863 597-833)”, the dwell time at MT plus ends in series [2] is 78 s; in series [3] it was 25 s.

Broadly, the stoichiometry N is the number of molecules, sites or subunits per partner or assembly. Consider “Drosophila melanogaster KLP61F BASS-XL (extended Bipolar assembly domain minifilament) (from UniProt P46863 620-804) (domain or fragment)”, for which, in series [4], the stoichiometry N was found to be 4.

As to “human Eg5 kinesin-5 mini-tetramer with tail (hMBXt), TMR labelled (from UniProt P52732 1-374; P46863 597-799; P52732 913-1056)”, in series [1], the dwell time at MT plus ends, longer lifetime population was found to be 484 s and the dwell time at MT plus ends, shorter lifetime population amounted to 16.4 s.

B1: human Eg5 kinesin-5 mini-tetramer with tail (hMBXt), TMR labelled (other, Homo sapiens | Drosophila melanogaster, UniProt P52732 1-374, looked up)
chain: MASQPNSSAKKKEEKGKNIQVVVRVRPFNLAERKASAHSIVESDPVRKEVSVRTGGLADKSSRKTYTFDMVFGASTKQIDVYRSVVAPILDEVIMGYNATIFAYGQTGTGKTFTMEGERSPNEEYTWEEDPLAGIIPRTLHQIFEKLTDNGTEFSVKVSLLEIYNEELFDLLNPSSDVSERLQMFDDPRNKRGVIIKGLEEITVHNKDEVYQILEKGAAKRTTAATLMNAYSSRSHSVFSVTIHMKETTIDGEELVKIGKLNLVDLAGSENIGRSGAVDKRAREAGNINQSLLTLGRVITALVERTPHVPYRESKLTRILQDSLGGRTRTSIIATISPASLNLEETLSTLEYAHRAKCILNKPEVNQKLTKKALAQSLQDQTNLHNKLIGEVMKISDQHSQAFVAKLMEQMQQQQLLMSKEIQTNLQVIEENNQRHKAMLDSMQEKFATIIDSSLQSVEEHAKQMHKKLEQLGAMSLPDAEELQNLQEELANERALAQQEDALLESMMMQMEQIKNLRSKNSISMSVHLNKMEESRLTRNHRIDDIKSGIQDYQKLGIEASQSAQAELTSQMEAGMLLEQDLKLDIPTGTTPQRKSYLYPSTLVRTEPREHLLDQLKRKQPELLMMLNSSENNKEETIPDVDVEEAVLGQYTEEPLSQEPSVDAGVDSSSIGGVPFFQHKKSHGKDKENRGINTLERSKVEETTEHLVTKSRLPLRAQINL
modifications: Tetra-methyl Rhodamine (TMR) on the single reactive cysteine in the neck linker (N358C)
Take B1: the binding result in series [5] is listed as “binds”.
